In the Human Domainome abundance scans (Beltran et al. 2025):
± gives the uncertainty stated by the source.

B1: TOX high mobility group box family member 3, residues 256 to 323; numbered along this chain, O15405 (parent)
chain: QKPVSAYALFFRDTQAAIKGQNPNATFGEVSKIVASMWDSLGEEQKQVYKRKTEAAKKEYLKALAAYR

Variants of: B1
Experiment: abundance fitness (aPCA) (normalised: wild type 0, dead -1); higher = more abundant; growth selection in yeast, the domain comes from the species named
Conditions: Homo sapiens

Abundance fitness of substitutions, site by site:
I18: K -1.18 ± 0.43; F -0.746 ± 0.16; S -0.682 ± 0.1; Q -0.833 ± 0.21; E -0.837 ± 0.19; N -0.72 ± 0.41; L -0.396 ± 0.082; R -0.707 ± 0.12; D -1.11 ± 0.49; H -0.902 ± 0.34; Y 0.02 ± 0.25; T -0.721 ± 0.19; P -1.03 ± 0.18; V 0.012 ± 0.057; G -0.966 ± 0.18; W -0.692 ± 0.16
V34: S -0.638 ± 0.091; I -0.149 ± 0.09; A -0.012 ± 0.05; K -0.922 ± 0.2; M -0.443 ± 0.092; T -0.444 ± 0.11; Y -0.974 ± 0.22; P -0.689 ± 0.11; H -1.06 ± 0.23; W -0.92 ± 0.15; F -0.956 ± 0.17; D -0.541 ± 0.32; G -0.358 ± 0.06; E -0.963 ± 0.17; R -1.01 ± 0.14; L -0.529 ± 0.069; Q -0.954 ± 0.38; C -0.137 ± 0.093; N -0.655 ± 0.27
I33: F -0.5 ± 0.25; R -0.134 ± 0.054; M 0.101 ± 0.071; H -0.324 ± 0.1; P -1.01 ± 0.12; K -0.01 ± 0.081; G -0.402 ± 0.067; S -0.267 ± 0.05; E -0.131 ± 0.067; T 0.021 ± 0.061; W -0.507 ± 0.1; C -0.324 ± 0.089; V -0.159 ± 0.052; D -0.771 ± 0.18; N -0.329 ± 0.094; L -0.016 ± 0.047; A -0.104 ± 0.05; Q -0.122 ± 0.092; Y -0.174 ± 0.11
T26: D 0.043 ± 0.085; R -0.266 ± 0.049; I -1.01 ± 0.23; P -0.332 ± 0.071; S 0.051 ± 0.055; N 0.03 ± 0.079; A -0.25 ± 0.068; H -0.161 ± 0.13; Q -0.217 ± 0.071; Y -0.957 ± 0.26; M -0.862 ± 0.11; W -0.811 ± 0.14; C -0.275 ± 0.064; V -0.845 ± 0.11; G -0.208 ± 0.065; L -0.544 ± 0.068
G28: T -0.028 ± 0.086; R 0.118 ± 0.04; Q -0.159 ± 0.1; P 0.05 ± 0.049; S 0.013 ± 0.046; C -0.046 ± 0.079; Y -0.5 ± 0.15; A -0.096 ± 0.065; N 0.117 ± 0.16; D 0.098 ± 0.083; V -0.12 ± 0.056; W -0.175 ± 0.06; I -0.076 ± 0.23; K -0.027 ± 0.073; E 0.175 ± 0.075; M -0.179 ± 0.063; H -0.026 ± 0.098
S31: E 0.015 ± 0.082; P -1 ± 0.22; G -0.224 ± 0.057; W -0.696 ± 0.15; D -0.105 ± 0.27; Y -0.162 ± 0.12; L -0.637 ± 0.073; Q -0.063 ± 0.083; T -0.118 ± 0.08; K 0.116 ± 0.084; F -0.664 ± 0.12; R -0.062 ± 0.047; H -0.265 ± 0.11; N -0.213 ± 0.16; I -0.583 ± 0.15; C -0.163 ± 0.072
F27: D 0.133 ± 0.068; T 0.098 ± 0.069; S 0.154 ± 0.051; I -0.071 ± 0.22; E 0.162 ± 0.072; H 0.182 ± 0.094; N 0.295 ± 0.085; W -0.129 ± 0.053; V 0.004 ± 0.049; C -0.188 ± 0.095; Q 0.093 ± 0.079; L 0.051 ± 0.041; A 0.249 ± 0.057; R 0.077 ± 0.047; G -0.071 ± 0.047; K 0.258 ± 0.061; Y 0.029 ± 0.11
G20: T 0.038 ± 0.086; C -0.116 ± 0.061; M -0.222 ± 0.18; D 0.192 ± 0.11; L 0.145 ± 0.052; I -0.01 ± 0.099; A 0.129 ± 0.051; W -0.455 ± 0.076; F -0.073 ± 0.11; S 0.1 ± 0.047; Q 0.224 ± 0.066; P -0.327 ± 0.12; K -0.129 ± 0.11; Y -0.361 ± 0.096; H 0.013 ± 0.13; V 0.039 ± 0.05; E 0.085 ± 0.16
P23: C -0.627 ± 0.21; K -0.37 ± 0.11; N -0.251 ± 0.15; T -0.898 ± 0.23; R -0.454 ± 0.056; F -1.16 ± 0.26; W -0.94 ± 0.14; Q -0.241 ± 0.088; E -0.558 ± 0.11; V -0.677 ± 0.11; Y -0.948 ± 0.29; I -0.521 ± 0.17; L -0.689 ± 0.085; H -0.615 ± 0.14; M -0.743 ± 0.13; S -0.335 ± 0.069; D -0.922 ± 0.39; A -0.32 ± 0.084
E29: D -0.174 ± 0.087; Y -0.372 ± 0.095; P -0.802 ± 0.18; L -0.832 ± 0.099; V -0.618 ± 0.099; G -0.959 ± 0.22; R -0.558 ± 0.068; M -0.564 ± 0.12; T -0.495 ± 0.077; C -0.643 ± 0.1; S -0.341 ± 0.067; W -0.158 ± 0.17; F -0.431 ± 0.14; K -0.534 ± 0.15; A -0.326 ± 0.09; H -0.501 ± 0.082; N -0.543 ± 0.12
A25: W -0.492 ± 0.26; L -0.155 ± 0.07; N -0.677 ± 0.089; T -0.363 ± 0.082; V -0.076 ± 0.067; Q -0.328 ± 0.13; S -0.287 ± 0.045; I -0.121 ± 0.066; M -0.212 ± 0.086; H -0.299 ± 0.084; C -0.369 ± 0.079; G -0.696 ± 0.1; R -0.088 ± 0.052; P -0.874 ± 0.15; Y -0.058 ± 0.071
K19: L -0.166 ± 0.05; P -1.03 ± 0.18; T -0.221 ± 0.063; S -0.127 ± 0.06; M 0.027 ± 0.083; R -0.102 ± 0.06; N -0.557 ± 0.12; D -1.13 ± 0.33; H -0.197 ± 0.094; V -0.122 ± 0.056; F -0.139 ± 0.099; Q 0.069 ± 0.066; E -0.256 ± 0.21; Y -0.151 ± 0.11; A -0.051 ± 0.063; I -0.179 ± 0.058; W -0.519 ± 0.24
Q21: P -0.722 ± 0.14; I -0.346 ± 0.084; V -0.321 ± 0.069; G -0.289 ± 0.057; F -0.444 ± 0.11; M -0.199 ± 0.17; W -0.388 ± 0.089; L -0.219 ± 0.056; C -0.256 ± 0.13; T -0.011 ± 0.084; H -0.175 ± 0.082; R 0.042 ± 0.058; D -0.126 ± 0.092; K 0.029 ± 0.1; S -0.029 ± 0.038; Y -0.338 ± 0.1; A -0.051 ± 0.058; N 0.048 ± 0.077
S36: F -0.242 ± 0.12; E 0.044 ± 0.042; M -0.097 ± 0.057; R -0.114 ± 0.056; N -0.054 ± 0.076; I -0.191 ± 0.094; V -0.218 ± 0.065; H -0.065 ± 0.11; T 0.067 ± 0.067; D -0.03 ± 0.096; L -0.344 ± 0.052; W -0.671 ± 0.13; G 0.01 ± 0.053; Y -0.182 ± 0.08; Q 0.164 ± 0.065; C -0.317 ± 0.24; P -0.587 ± 0.12; A 0.005 ± 0.036
K32: D -0.078 ± 0.075; T -0.055 ± 0.065; A -0.048 ± 0.058; Q -0.337 ± 0.097; N 0.214 ± 0.21; Y -0.662 ± 0.14; W -0.455 ± 0.14; E -0.167 ± 0.064; I -0.416 ± 0.14; H -0.286 ± 0.075; R -0.045 ± 0.057; C -0.289 ± 0.072; M -0.198 ± 0.069; S -0.107 ± 0.053; P -0.966 ± 0.16; L -0.376 ± 0.054
V30: T -0.342 ± 0.13; W -0.319 ± 0.074; Y -0.811 ± 0.17; K -0.702 ± 0.15; M -0.162 ± 0.1; R -0.43 ± 0.062; P -0.776 ± 0.25; L -0.119 ± 0.051; E -0.453 ± 0.1; G -1.04 ± 0.17; A -0.896 ± 0.28; I 0.014 ± 0.11; C -0.309 ± 0.091; S -0.635 ± 0.099; H -0.823 ± 0.21
M37: C -0.186 ± 0.084; K 0.037 ± 0.065; L -0.219 ± 0.047; I -0.422 ± 0.13; D -0.488 ± 0.16; E -0.104 ± 0.065; F -0.427 ± 0.13; A -0.063 ± 0.071; H -0.227 ± 0.085; G -0.486 ± 0.067; N -0.114 ± 0.13
N22: H 0.037 ± 0.085; A -0.476 ± 0.095; F -0.298 ± 0.12; K -0.382 ± 0.13; R -0.044 ± 0.057; Y -0.121 ± 0.11; S -0.451 ± 0.071; M -0.437 ± 0.12; V -0.149 ± 0.083; Q -0.182 ± 0.073; E -0.443 ± 0.14; P -0.824 ± 0.28; I -0.515 ± 0.13; T -0.293 ± 0.084; D -0.41 ± 0.31
A35: S -0.037 ± 0.05; T -0.066 ± 0.08; C -0.275 ± 0.088; F -0.375 ± 0.11; D -0.275 ± 0.12; E -0.015 ± 0.078; Y -0.197 ± 0.13; L -0.289 ± 0.068; V -0.727 ± 0.19; H 0.001 ± 0.1; M -0.22 ± 0.09; I -0.123 ± 0.12; P -0.826 ± 0.12; Q -0.01 ± 0.071; W -0.16 ± 0.076; G -0.122 ± 0.056; R 0.12 ± 0.048; K -0.024 ± 0.13
N24: L -0.304 ± 0.049; F -0.154 ± 0.074; S 0.034 ± 0.052; D -0.055 ± 0.091; P -0.848 ± 0.14; T 0.026 ± 0.078; M -0.095 ± 0.058; Q -0.353 ± 0.088; W -0.509 ± 0.091; H 0.028 ± 0.097; E -0.001 ± 0.07; K 0.016 ± 0.058; R -0.063 ± 0.053; V -0.591 ± 0.08; I -0.879 ± 0.27; A -0.183 ± 0.066; G 0.096 ± 0.056; C -0.331 ± 0.086; Y -0.563 ± 0.097
